PMC4211667, “Cell Fate Regulation Governed by a Repurposed Bacterial Histidine Kinase” (PLoS Biology, 2014)
Like-named read-outs stand apart in the source and are kept apart here.

Assays:
[1] = target: BODIPY-DivK (unphosphorylated DivK response regulator); assay: fluorescence polarization binding assay; conditions: parent: est. 2.0; read off a plot
[2] = target: BODIPY-DivK∼P (phosphorylated DivK response regulator); assay: fluorescence polarization binding assay; conditions: parent: est. 36; read off a plot
[3] = target: the molecule itself; assay: SEC; gel filtration of the purified DivL point mutants; conditions not given
[4] = target: BODIPY-DivK (unphosphorylated DivK response regulator) (Caulobacter crescentus); assay: fluorescence polarisation; 250 nM BODIPY-DivK or BODIPY-DivK∼P with varying kinase concentrations (DivL 0–120 µM), 45 min to equilibrium; DivK∼P made with 250 nM DivJ, 1 mM ATP, 5 mM MgCl2; unphosphorylated DivK with 1 mM AMP-PNP, 5 mM MgCl2; apparent Kd
[5] = target: BODIPY-DivK∼P (phosphorylated DivK response regulator) (Caulobacter crescentus); assay: as above
[6] = target: BODIPY-DivK (unphosphorylated DivK response regulator) (Caulobacter crescentus); assay: as above; remark: listed apart in the source
[7] = target: BODIPY-DivK∼P (phosphorylated DivK response regulator) (Caulobacter crescentus); assay: as above; remark: listed apart in the source

Binder | response [1] | response [2] | stoichiometry N [3] | Kd [4] | Kd [5] | Kd [6] | Kd [7]
DivL(152–769) Y562A (domain or fragment, Caulobacter crescentus, UniProt Q9RQQ9 152-769, looked up, DivL pseudo-histidine kinase, Caulobacter crescentus, residues 152-769; source: E. coli Rosetta (DE3) pLysS, purified (Ni-NTA, gel filtration)) RADSGLPTAARFAAFVDSVVEPCWIAGADGQAIWGNAAFVRAVGAASAQAPALAGKSFDRGADAVVVEAAGKGERREALRWINVEGRRRAFRLSAQPLDGGGVGVFCADVTEIEDVRDAFKKHVEAHDETLNHIAEAVAIFSQTRRLSYHNTAFAELWGLEPAWLADRPTHGEVLDRLRQRRRLPETIDYAGWKAAELARYEDLGPQADDLWDLPDGRTLKVVRQPHPLGGMLLIYSDITGELRLKAQYNALIQVQQATLDKLNDAVAVFGSDGRLRLHNEAFETFWNVTPHALEAAGDFEGVVELCVPRLHDLSFWRELKGRVADPDPQMRAPTSGEVRTSDSRIVLYQSRPLPDGATLIAFADVTDTRDLQSALADRSAALAEAERLKRDFVGNVSYELRTPLTTIIGASELLERADGISERGRNHVAAVRAAATQLARSIDDVLDMAQIDAGEMALEIEDIRVSDLLLNAQERALKDAQLGGVTLAVECEEDVGLIRGDGKRLAQTLDHLVENALRQTPPGGRVTLSARRALGEVRLDVSDTGRGVPFHVQAHIFDRFVGRDRGGPGLGLALVKALVELHGGWVALESEPGNGSTFTCHLPETQQPGAMQPELGF | 2.9 AU | 3.2 AU | 2 |  |  |  | 
DivL(152–769) Y550H (domain or fragment, Caulobacter crescentus, UniProt Q9RQQ9 152-769, looked up, DivL pseudo-histidine kinase, Caulobacter crescentus, residues 152-769; also called DivL Y550H; source: E. coli Rosetta (DE3) pLysS, purified (Ni-NTA, gel filtration)) RADSGLPTAARFAAFVDSVVEPCWIAGADGQAIWGNAAFVRAVGAASAQAPALAGKSFDRGADAVVVEAAGKGERREALRWINVEGRRRAFRLSAQPLDGGGVGVFCADVTEIEDVRDAFKKHVEAHDETLNHIAEAVAIFSQTRRLSYHNTAFAELWGLEPAWLADRPTHGEVLDRLRQRRRLPETIDYAGWKAAELARYEDLGPQADDLWDLPDGRTLKVVRQPHPLGGMLLIYSDITGELRLKAQYNALIQVQQATLDKLNDAVAVFGSDGRLRLHNEAFETFWNVTPHALEAAGDFEGVVELCVPRLHDLSFWRELKGRVADPDPQMRAPTSGEVRTSDSRIVLYQSRPLPDGATLIAFADVTDTRDLQSALADRSAALAEAERLKRDFVGNVSHELRTPLTTIIGYSELLERADGISERGRNHVAAVRAAATQLARSIDDVLDMAQIDAGEMALEIEDIRVSDLLLNAQERALKDAQLGGVTLAVECEEDVGLIRGDGKRLAQTLDHLVENALRQTPPGGRVTLSARRALGEVRLDVSDTGRGVPFHVQAHIFDRFVGRDRGGPGLGLALVKALVELHGGWVALESEPGNGSTFTCHLPETQQPGAMQPELGF | 4 AU | 35 AU | 2 |  |  |  | 
DivL(152–769) H579E (domain or fragment, Caulobacter crescentus, UniProt Q9RQQ9 152-769, looked up, DivL pseudo-histidine kinase, Caulobacter crescentus, residues 152-769; source: E. coli Rosetta (DE3) pLysS, purified (Ni-NTA, gel filtration)) RADSGLPTAARFAAFVDSVVEPCWIAGADGQAIWGNAAFVRAVGAASAQAPALAGKSFDRGADAVVVEAAGKGERREALRWINVEGRRRAFRLSAQPLDGGGVGVFCADVTEIEDVRDAFKKHVEAHDETLNHIAEAVAIFSQTRRLSYHNTAFAELWGLEPAWLADRPTHGEVLDRLRQRRRLPETIDYAGWKAAELARYEDLGPQADDLWDLPDGRTLKVVRQPHPLGGMLLIYSDITGELRLKAQYNALIQVQQATLDKLNDAVAVFGSDGRLRLHNEAFETFWNVTPHALEAAGDFEGVVELCVPRLHDLSFWRELKGRVADPDPQMRAPTSGEVRTSDSRIVLYQSRPLPDGATLIAFADVTDTRDLQSALADRSAALAEAERLKRDFVGNVSYELRTPLTTIIGYSELLERADGISERGRNEVAAVRAAATQLARSIDDVLDMAQIDAGEMALEIEDIRVSDLLLNAQERALKDAQLGGVTLAVECEEDVGLIRGDGKRLAQTLDHLVENALRQTPPGGRVTLSARRALGEVRLDVSDTGRGVPFHVQAHIFDRFVGRDRGGPGLGLALVKALVELHGGWVALESEPGNGSTFTCHLPETQQPGAMQPELGF | 4.2 AU | 5.1 AU | 2 |  |  |  | 
DivL(152–769) (domain or fragment) RADSGLPTAARFAAFVDSVVEPCWIAGADGQAIWGNAAFVRAVGAASAQAPALAGKSFDRGADAVVVEAAGKGERREALRWINVEGRRRAFRLSAQPLDGGGVGVFCADVTEIEDVRDAFKKHVEAHDETLNHIAEAVAIFSQTRRLSYHNTAFAELWGLEPAWLADRPTHGEVLDRLRQRRRLPETIDYAGWKAAELARYEDLGPQADDLWDLPDGRTLKVVRQPHPLGGMLLIYSDITGELRLKAQYNALIQVQQATLDKLNDAVAVFGSDGRLRLHNEAFETFWNVTPHALEAAGDFEGVVELCVPRLHDLSFWRELKGRVADPDPQMRAPTSGEVRTSDSRIVLYQSRPLPDGATLIAFADVTDTRDLQSALADRSAALAEAERLKRDFVGNVSYELRTPLTTIIGYSELLERADGISERGRNHVAAVRAAATQLARSIDDVLDMAQIDAGEMALEIEDIRVSDLLLNAQERALKDAQLGGVTLAVECEEDVGLIRGDGKRLAQTLDHLVENALRQTPPGGRVTLSARRALGEVRLDVSDTGRGVPFHVQAHIFDRFVGRDRGGPGLGLALVKALVELHGGWVALESEPGNGSTFTCHLPETQQPGAMQPELGF |  |  |  | > 150 µM | 11 µM |  | 
DivL(152–769) R553A (domain or fragment, Caulobacter crescentus, UniProt Q9RQQ9 152-769, looked up, DivL pseudo-histidine kinase, Caulobacter crescentus, residues 152-769; source: E. coli Rosetta (DE3) pLysS, purified (Ni-NTA, gel filtration)) RADSGLPTAARFAAFVDSVVEPCWIAGADGQAIWGNAAFVRAVGAASAQAPALAGKSFDRGADAVVVEAAGKGERREALRWINVEGRRRAFRLSAQPLDGGGVGVFCADVTEIEDVRDAFKKHVEAHDETLNHIAEAVAIFSQTRRLSYHNTAFAELWGLEPAWLADRPTHGEVLDRLRQRRRLPETIDYAGWKAAELARYEDLGPQADDLWDLPDGRTLKVVRQPHPLGGMLLIYSDITGELRLKAQYNALIQVQQATLDKLNDAVAVFGSDGRLRLHNEAFETFWNVTPHALEAAGDFEGVVELCVPRLHDLSFWRELKGRVADPDPQMRAPTSGEVRTSDSRIVLYQSRPLPDGATLIAFADVTDTRDLQSALADRSAALAEAERLKRDFVGNVSYELATPLTTIIGYSELLERADGISERGRNHVAAVRAAATQLARSIDDVLDMAQIDAGEMALEIEDIRVSDLLLNAQERALKDAQLGGVTLAVECEEDVGLIRGDGKRLAQTLDHLVENALRQTPPGGRVTLSARRALGEVRLDVSDTGRGVPFHVQAHIFDRFVGRDRGGPGLGLALVKALVELHGGWVALESEPGNGSTFTCHLPETQQPGAMQPELGF | 2.3 AU | 3.2 AU | 2 |  |  |  | 
DivL(152–769) T557N (domain or fragment, Caulobacter crescentus, UniProt Q9RQQ9 152-769, looked up, DivL pseudo-histidine kinase, Caulobacter crescentus, residues 152-769; source: E. coli Rosetta (DE3) pLysS, purified (Ni-NTA, gel filtration)) RADSGLPTAARFAAFVDSVVEPCWIAGADGQAIWGNAAFVRAVGAASAQAPALAGKSFDRGADAVVVEAAGKGERREALRWINVEGRRRAFRLSAQPLDGGGVGVFCADVTEIEDVRDAFKKHVEAHDETLNHIAEAVAIFSQTRRLSYHNTAFAELWGLEPAWLADRPTHGEVLDRLRQRRRLPETIDYAGWKAAELARYEDLGPQADDLWDLPDGRTLKVVRQPHPLGGMLLIYSDITGELRLKAQYNALIQVQQATLDKLNDAVAVFGSDGRLRLHNEAFETFWNVTPHALEAAGDFEGVVELCVPRLHDLSFWRELKGRVADPDPQMRAPTSGEVRTSDSRIVLYQSRPLPDGATLIAFADVTDTRDLQSALADRSAALAEAERLKRDFVGNVSYELRTPLNTIIGYSELLERADGISERGRNHVAAVRAAATQLARSIDDVLDMAQIDAGEMALEIEDIRVSDLLLNAQERALKDAQLGGVTLAVECEEDVGLIRGDGKRLAQTLDHLVENALRQTPPGGRVTLSARRALGEVRLDVSDTGRGVPFHVQAHIFDRFVGRDRGGPGLGLALVKALVELHGGWVALESEPGNGSTFTCHLPETQQPGAMQPELGF |  | 2.6 AU | 2 |  |  |  | 
DivJ histidine kinase, Q03228 1-597 (enzyme, modifications not checked) RDDRYASEIIGLETLLDGLPHLAIAVRGQGQVTAVRGAAPPGVTRADLVNRGLTGAAAPGDRQRLTAAIAQAHREGSASLTFNPALGVERVVALDMHRVAPNQLVGVLRDITVERHREHALDQARIDAEALAAGRARFLANMSHELRTPLNAIMGFSDIMRARMFGPLSDRYAEYAELIHESGGHLLDLINDVLDMSKIEAERFELQRGVFDAREAVQAAMRLLRVQSDTAGVQLRGVLPPGELEVDADRRALKQIVLNLVSNALKFTPRGGQVTVTAHGYDGVLEIVVADTGVGISPEDLERLGRPYEQAGGAEQRARGTGLGLSLVRAFAQLHGGEMVIESRLGAGTTVSVRLPVLLAPMVAATPTPPAAPEAPSAPEPAPTVEEPPPASLGDNVIAFAPR |  |  |  |  |  | 8 µM | 16 µM
PleC histidine kinase/phosphatase, P37894 1-842 (enzyme, modifications not checked) VAHREFIDSERRFRLAVEAARCGIWEWDLNGDQVYLSDVTGAMFGWGGGGVVSGQDLLERISIDHRERVRQALANAAMYGAFDVSFRVPASEQGARSLWIDARGQGFGKPGSEGHARIIGVALDVTEERIAQARAQAAENRLRDAIESVSEAFVLWDRQGRLLMCNRNYRSVFSLEPKILKPGAARAEVNRFAALAIKQDHPAPDGAKGVREAEMMDGRWIQISERRTAEGGLVMTAADITAIKTQEEARRRNEEQLQNAVAGLERSQEQLAELARKYETEKVKAESANKAKSEFLANMSHELRTPLNAINGFSEIMMNEMFGPLGDQRYKGYSQDIHSSGQHLLALINDILDMSKIEAGKMNLKFESMHLEDVAEDAVRLVRNRAEAAGLKLDIDFPQLPEIEADYRAVKQVLLNLLSNAIKFTPRAGSVTVRAEVRRDPFGDLIKVSVTDTGIGIAKEDLARLAKPFEQVESQFSKTTQGTGLGLALTKSLITMHDGVLEMHSTPGEGTTVSFTLPVRHSDQKITRDFVAA |  |  |  |  |  | 26 µM | 2.4 µM
